# Tested on: protein zero related (PZR), tyrosine-phosphorylated
# Sequence (chain, as listed by the source): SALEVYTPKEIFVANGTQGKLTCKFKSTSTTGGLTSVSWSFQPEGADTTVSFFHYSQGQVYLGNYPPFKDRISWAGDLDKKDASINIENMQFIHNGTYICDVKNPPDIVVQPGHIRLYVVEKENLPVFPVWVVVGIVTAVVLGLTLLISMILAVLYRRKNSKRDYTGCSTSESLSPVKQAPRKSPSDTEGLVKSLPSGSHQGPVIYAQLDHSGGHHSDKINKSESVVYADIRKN
substance,measurement,value
tyrosine phosphatase SHP-1,dephosphorylation of purified p43 in vitro (anti-phosphotyrosine Western blot),SHP-1 only produced a partial dephosphorylation

# — patent US20030171565
